Experiment [1] concerns the target T1, human CD40 on the surface of PBMCs (human, UniProt P25942 21-277). Description: cell-based or functional assay.
For experiment [2], the target named is T1, human CD40 on the surface of PBMCs. Description: cell-based or functional assay. This is another data set of the same source.
The target of a further experiment is T2, murine CD40 (murine, UniProt P27512 20-193, limits assumed).
T2 sequence (looked up): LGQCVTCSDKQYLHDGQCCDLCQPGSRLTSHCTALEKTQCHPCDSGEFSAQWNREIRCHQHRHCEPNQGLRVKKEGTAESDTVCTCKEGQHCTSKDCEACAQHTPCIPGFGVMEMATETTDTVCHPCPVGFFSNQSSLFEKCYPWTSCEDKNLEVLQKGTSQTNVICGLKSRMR
Nature of the experiment: not described.

Experiment [3] addresses T3, human FcγRIIIa, low affinity (158F) form, on CHO cells (human, UniProt P08637 17-254).
T3 construct: whole, on cells; Allotype with F at position 158 as printed; also called FcγRIIIa 158F
Nature of the experiment: flow cytometry, biotinylated antibody on CHO cells expressing FcγRIIIa 158F.

Experiment [4] concerns the target T4, human FcγRIIIa, high affinity (158V) form, on CHO cells (human, UniProt P08637 17-254).
T4 construct: whole, on cells; Position 158 probably counts on the mature protein; also called FcγRIIIa 158V
Description: flow cytometry, biotinylated antibody on CHO cells expressing FcγRIIIa 158V. In general terms: In flow cytometry, cells or beads pass a laser one at a time.

As usually defined, the Kd is the constant that tells how readily two partners part at equilibrium.

T1 sequence (P25942 21-277): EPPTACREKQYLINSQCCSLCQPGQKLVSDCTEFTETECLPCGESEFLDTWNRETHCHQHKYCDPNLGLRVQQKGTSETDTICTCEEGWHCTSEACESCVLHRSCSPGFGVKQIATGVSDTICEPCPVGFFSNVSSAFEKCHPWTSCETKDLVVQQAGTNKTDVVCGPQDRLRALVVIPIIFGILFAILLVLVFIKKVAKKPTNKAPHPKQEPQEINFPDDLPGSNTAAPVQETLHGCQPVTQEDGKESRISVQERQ
T3 sequence (P08637 17-254): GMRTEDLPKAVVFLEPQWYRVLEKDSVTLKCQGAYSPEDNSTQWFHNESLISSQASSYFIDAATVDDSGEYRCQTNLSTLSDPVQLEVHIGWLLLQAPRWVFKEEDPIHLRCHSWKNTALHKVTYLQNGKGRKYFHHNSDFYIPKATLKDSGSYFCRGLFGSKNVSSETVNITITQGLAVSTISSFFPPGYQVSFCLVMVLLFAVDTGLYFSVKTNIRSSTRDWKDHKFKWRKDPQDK
T4 sequence (P08637 17-254 F176V): as the sequence (P08637 17-254) above, with F160V counted along it

B1: SEA-CD40 (non-fucosylated humanized S2C6 antibody) (antibody, human IgG1, kappa)
heavy: not shown
light: DIQMTQSPSSLSASVGDRVTITCRSSQSLVHSNGNTFLHWYQQKPGKAPKLLIYTVSNRFSGVPSRFSGSGSGTDFTLTISSLQPEDFATYFCSQTTHVPWTFGQGTKVEIKRTVAAPSVFIFPPSDEQLKSGTASVVCLLNNFYPREAKVQWKVDNALQSGNSQESVTEQDSKDSTYSLSSTLTLSKADYEKHKVYACEVTHQGLSSPVTKSFNRGEC
notes: also called SEA40; non-fucosylated hS2C6; copies: 2 + 2
Regarding B1, in experiment [1], the “EC50 of CD86 upregulation on PBMCs (24 hr)” value stood at 0.14 µg/mL, the “EC50 of MHCI upregulation on PBMCs (48 hr)” value is 0.011 µg/mL and the “EC50 of MHCII upregulation on PBMCs (24 hr)” value was determined as 0.41 µg/mL. Moreover, in experiment [2], the “MHCII surface expression on PBMCs, ratio to SEA-h00; SEA-CD40 0.0001 µg/mL, 6 hrs” value came to 0.85 fold; the “MHCII surface expression on PBMCs, ratio to SEA-h00; SEA-CD40 0.0001 µg/mL, 24 hrs” value came to 1.05 fold; the “MHCII surface expression on PBMCs, ratio to SEA-h00; SEA-CD40 0.0001 µg/mL, 48 hrs” value came out at 0.99 fold; the “MHCII surface expression on PBMCs, ratio to SEA-h00; SEA-CD40 0.001 µg/mL, 6 hrs” value amounted to 1 fold. Further, in experiment [2], the “MHCII surface expression on PBMCs, ratio to SEA-h00; SEA-CD40 0.001 µg/mL, 24 hrs” value stood at 1.07 fold; the “MHCII surface expression on PBMCs, ratio to SEA-h00; SEA-CD40 0.001 µg/mL, 48 hrs” value is 1.1 fold; the “MHCII surface expression on PBMCs, ratio to SEA-h00; SEA-CD40 0.01 µg/mL, 6 hrs” value worked out at 0.9 fold; the “MHCII surface expression on PBMCs, ratio to SEA-h00; SEA-CD40 0.01 µg/mL, 24 hrs” value worked out at 1.21 fold. For the same molecule, in experiment [2], the “MHCII surface expression on PBMCs, ratio to SEA-h00; SEA-CD40 0.01 µg/mL, 48 hrs” value worked out at 1.38 fold; the “MHCII surface expression on PBMCs, ratio to SEA-h00; SEA-CD40 0.1 µg/mL, 6 hrs” value was 0.9 fold; the “MHCII surface expression on PBMCs, ratio to SEA-h00; SEA-CD40 0.1 µg/mL, 24 hrs” value stood at 1.19 fold; the “MHCII surface expression on PBMCs, ratio to SEA-h00; SEA-CD40 0.1 µg/mL, 48 hrs” value came out at 1.5 fold. Besides, in experiment [2], the “MHCII surface expression on PBMCs, ratio to SEA-h00; SEA-CD40 1 µg/mL, 6 hrs” value turned out to be 1.14 fold; the “MHCII surface expression on PBMCs, ratio to SEA-h00; SEA-CD40 1 µg/mL, 24 hrs” value was determined as 1.76 fold; the “MHCII surface expression on PBMCs, ratio to SEA-h00; SEA-CD40 1 µg/mL, 48 hrs” value was determined as 1.57 fold; the “MHCII surface expression on PBMCs, ratio to SEA-h00; SEA-CD40 10 µg/mL, 6 hrs” value was 1.1 fold. For the same molecule, in experiment [2], the “MHCII surface expression on PBMCs, ratio to SEA-h00; SEA-CD40 10 µg/mL, 24 hrs” value turned out to be 1.62 fold; the “MHCII surface expression on PBMCs, ratio to SEA-h00; SEA-CD40 10 µg/mL, 48 hrs” value came to 2.1 fold; the “MHCII surface expression on PBMCs, ratio to SEA-h00; SEA-CD40 100 µg/mL, 6 hrs” value turned out to be 1.13 fold; the “MHCII surface expression on PBMCs, ratio to SEA-h00; SEA-CD40 100 µg/mL, 24 hrs” value turned out to be 1.64 fold. In addition, the “MHCII surface expression on PBMCs, ratio to SEA-h00; SEA-CD40 100 µg/mL, 48 hrs” value in experiment [2] was found to be 2.1 fold. For the same molecule, in the experiment with murine CD40, the binding result is “no binding”. Besides, binding in experiment [3] was characterised by a dissociation constant (Kd) of 27.5 nM. The same molecule had a Kd in experiment [4] of 5.2 nM.

B2: dacetuzumab (fucosylated humanized S2C6) (antibody, human IgG1, kappa)
heavy: not shown
light: B1 light
notes: also called SGN-40; SGN40; copies: 2 + 2
As for B2, the Kd in experiment [3] worked out at 303 nM; in experiment [4], 37.9 nM.

These data come from US20240075134A1 (Seagen, published 2024).
